# Test results: the nanobody polyreactivity screen of Harvey et al. (2022)
# Assay: yeast display, Sf9 membrane polyspecificity reagent, FACS + sequencing; frameworks hold sequencing errors
# In short: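 Nanobodies came from a synthetic yeast display library in Saccharomyces cerevisiae BJ5465, induced with galactose for 36–48 hours and stained for 1 hour at 4 °C with 10% biotinylated, detergent-solubilized Sf9 membrane reagent. Cells were enriched on streptavidin microbeads and then FACS-sorted, with low and high (top ~1%) gates set on anti-HA fluorescence for expression and streptavidin fluorescence for reagent binding. Each polyreactivity label reflects the gate a clone came from. Genes were amplified by colony PCR, sequenced by MiSeq 2 × 250 and filtered by CDR length.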
row,Sequence,polyreactivity (PSR sort gate)
1,QVQLVESGGGLVQAGGSLRLSCAASGSIFAPYAMGRYRQAPGKERELVAAISTTGGTTYYADSVKGRFTISRDNAKNTVYLQMNSLKPEDTAVYYCAADWSESFGKGGDYWGQGTQVTVSS,low polyreactivity
2,QVQLVESGGGLVHAGGSLRLSCAASGSTFSRNVMVWYRQAPGKEWELVAAISRGGSTNYADSVKGRFTISRENAKNTVYLQMKSLKPEDTAVYYCNAPRLGKFYNWGQGTQVTVSS,low polyreactivity
3,QVQLVESGGGLVQAGGSLRLSCAASGFTFGWYDMGWYRQAPGKERELVASISWSGSSTYYADSVKGRFTISRDNAKNTVYLQLNSLKPEDTAVYYCNDVSVDYVNWYWYDYWGQGTQVTVSS,high polyreactivity
4,QVQLVESGGGLVQAGGSLRLSCAASGSTFRANAMGWYRQAPGKERELVAAISSGDSTNYADSVKGRFTISRDNAKKSVYLQMNSLKPEDTAVYYCAAVYTYYWWGSYGYWGQGTQVTVSS,low polyreactivity
5,QVQLVESGGGLVQAGGSLRLICPASGRIFLTKAIGWYRPAPGIDRELVADISRGGSTYADSVKGRFTISSDNAKNTVYLQINSLKPEDTAVYYCAPDEYSPADSRTRYDYWGQGTQVSVSS,low polyreactivity
6,QVQLVESGGGLVQAGGSLRLSCAASGSTFVANAMGWYIQAPGKERELVAAISFNRGGNTYYADSVKGRFTISRDNAKNTVYLQMNSLKPEDTAVYYCAAAQRELPTVRRNYWGQGTQVTVSS,high polyreactivity
7,QVQLVESGGGLVQAGGSLRLSCAASGRTFRLYALGWYRQAPGKERELVAAIRSSGGRTYYADSVKGRFTISRDNAKKTVYLQINSLKPEDTAVYYCATTSGLIGYYWKYNYWGQGTQVTVSS,high polyreactivity
8,QVQLVESGGGLVQAGGSLRLSCAASGSTFGRKAMAWYRQAPGKEMELVAVISKSGGSTYYADTVKGRFTISRDNAKNTVYLQMNSLKPEDTAVYYCAASLKYRRRMGYWGQGTQVTVSS,high polyreactivity
9,QVQLVESGGGLFQAGGSLRLSCAASGRTFDVYDMGWYRQAPGKERELVAAITWSGGSTYYADSVKGRFTISRDNAKNTVYLQMNSLKPEDTAVYYCAAGYYYFWTYDYWGQGTQVTVSS,low polyreactivity
10,QVQLVESGGGLVQAGGSLRLICAASGFTFPWNVMGWYRQAPGKERELVAAITYDGGGTYADSVKGRFTISRDNAKNTVYLQMNSLKPEDTAVYYCNADLIYGEEYDYWGQGTQVTVSS,low polyreactivity
11,QVQLVESGGGLVQAGGSLRLSCAASGSTFDYYAMGWYRQAPGKERDLVAGITSDGSTDYADSVKGRFTISRDNAKNTVYLQMNSLKPEDTAVYYCAVDGDPVFYTTYYYSYYYWGQGTQVTVSS,low polyreactivity
12,QVQHVEKGGALVQAGGSLRLSCAASGFTVDWYAMGWYIQAPGKERELVAAITTSGGTKYYADSVKGRFTISRDNAKNTVYLLMNCLNPEDTAVYYCAAEGTWSRNYDYWGQGTQVTVSS,low polyreactivity
13,QVQLVESGGGLVQAGGSLRLSCDASGFIFRRYTMGWNRQAPGKETELVPAITSSGGTNYADSVKGRFTISRDNAKNNVFVLRNSLKPEDTAVYYCAARRLTQQGYGGGYWGQGTQVTVAS,high polyreactivity
14,QVQLVESGGALVQAGGSLRLSCAASGFTFAFYAMGWYRQAPGKERELVAAISSRGGSTYYADSVKGRFTISRDNAKITVYLQMNSLKPEDTAVYYCAARGYYSVVEYYYWGQGTQVTVSS,high polyreactivity
15,QVQLVESGGGLVQAGGSLRLSCAASGFTFSINTMGWYRQAPGKEREFVAGISRSGGSTYYADSVKGRFTISRDNAKNTVYLQMNSLKPEDTAVYYCLKYYQGYDYWGQGTQVTVSS,high polyreactivity
16,QVQRVESGGGLVQAGGSLRLSCAASGFTLLPNAMGWYRQAPGKETELVAAITASGGRTYYADSVKGRFTISRDNAKNTVYLQMNSLKPEDTAVYSCNADWQDDLAGYDVDYWGQGTQVTGSS,low polyreactivity
17,QVQLVESGGGLVQAGGSLRLSCAASASIFYIYAKGSYRQAPGKARELVAVIRNGGRTNYADSVKGRFTISRDNAKNTVYFQMNSLKPEDTAVYYCAARPRHVTRFDYWGQGTQVTVSS,high polyreactivity
18,QVQLVESGGGLVQAGGSLRLSCADSGSIFLPYAMGCYRKAPGKERELVAAITWGGDSTYADSVKGRFTISRDNAKNTVYLQMNSQKPEDTAVYYCAAGAGFESDYWGQGTQVTVSS,low polyreactivity
19,QVQLVESGGGLVQAGGSLRLSCAASGRIFALNAMVWYRQAPGKERELVAAITWGGGSTYYADSVKGRFTISRDNAKNTVYLQMNSLKPEDTAVYYCAADVPSRVYTVISVEVEYWGQGTQVTVSS,low polyreactivity
20,QVQLVESGGGLVQAGGSLRLSCAASGSTFRYYAMGWYRQAPGKEREMVAAISTSGGRTYYADSVKGRFTISRDNAKNTVYLQLNSLKPEDTAVYYCNARESRGYSYQTWKYYYWGQGTQVTVSS,high polyreactivity
21,QVQLVESGGGLVQAGGSLRLSCAASGITFSYNAMGWYRQAPGKERELVAAIRVGDGSTYYADSVKGRFTISRDNAKNTVYLQMNSLKPEDTAVNYCNARYLRLRYPYTDEYNYWGQGTQVTVSS,low polyreactivity
22,QVQLVESGGGLVQAGGSLRLSCAASGSIFPVYAMGWYRQAPGKERELVATITGSGDSTYADSVKGRFTISRDNAKNTVYLQMNSLKPEDTAVYYCAATTDRAEDDDNIGGYWGQGTQVTVSS,low polyreactivity

row,Sequence,polyreactivity (PSR sort gate)
1,QVQLVESWRGLVQAGGSLRLSCAASGNTFVYNAMRWYRQAPGKERELVAGITKTGGRTYYADSVKGRFTISRDIAKNTVYLEMNSLKPEDTAVYYCAARPWNDGYYVGRFHMVYWGQGTQVTVSS,low polyreactivity
2,QVQLVESGGGLVQAGGSLRLSCAAYGRIFSRYAMGWYRQAPGKERELVAAISSSGTTTYYADSVNGRFTISRDTAKNTVYLQMNSLKPEDTAVYSCATSAVRHIYWGQGTQVTVSS,high polyreactivity
3,QVQLVESGGGLVQAGGSLRLSCAASGSTFIPNAMGWYRQAPGKERELVAAITYRGGRTYYADSVKGRFTISRDNAKYTVYLQLNSLKPEDTAVYYCAADFWYNQVRFYYWGQGTQVTVSS,high polyreactivity
4,QVQLVESGGCLVQEGGSLRLSCAASGRIININAMGWSRHAPGKEREMVAAITWRSGSTYYADSVKGRFTISRDNAKNTVYLQLNSLKPEDTAVYFCAADFSQTRRPIRFYYWGQGTQVTVSS,high polyreactivity
5,QVQLVESGGGLVQAGGSLRLSCAPSGSIFWLYDMGWYRPAPGKERELVAAIDSGDSTKYADSVKGRFTISRDNAKNTVYLQMNSLKPEDTAVYYCNASRRYHVRAPYDYWGQGTQVTVSS,low polyreactivity
6,QVQLVESGGRLVEAGGSLSLSWAASGRIFPKYPMGWYRQAPGKERELVAAISRRGSSTYYADSVQGRFTISRDNAKNTVYLQMNSLTPEDTAVYYCATDARDGHDYWGQGSQVTVSS,high polyreactivity
7,QVQLVESGGGLVQAGGSLRLSCAASGSTLVSNAMGWYRQAPGKERELVASISYSATSTYYADSVKGRFTISRDNAKNTVYLQMNSLKPEDTAVYYCAAKTFRSRYYYWGQGTQVTVSS,high polyreactivity
8,QVQLGESGGGLVQAGGSLRLSCAASGSTFRINAMGWYRQAPGKERELVADINSGGNTTYADSVKGRFTISRDNAKNTVYLQMNSLKPEDTAVYYCAAPRTYYSELTSPYDYCGQGTQVTVSS,low polyreactivity
9,QVQLVESGGGLVQAGGSLRLSCAASGSNSYFNAMGWYRQAPGKERELVAAITSGGSTYYADSVKGRFTISRDNAKNTVYLQMNSLKPEDTAVYYCNAPLEWGVYAAQNWDDGYWGQGTQVTVSS,low polyreactivity
10,QVQLVESGGGLVQAGGSLRLSCAASGSTFLLNAMGWYRQAPGKERELVAAITSSGGTNYADSVKGRFTISRDNAKNTVYLQMISLKPEDTAVYYCNTRYSPGYQGTEVDYWGQGTQVTVSS,low polyreactivity
11,QVQLVESGGGLVQAGGSLRLSCAASGRILSSYAMGWNRQAPGKERELVAVISSGGNTYYADSVKGRFTISRDNAKNTVFLQMNSLKPEDTAVYYCNAARRGYLRRYYWGQGTQVNVSS,high polyreactivity
12,QVQLVESGGGLVQAGGSLRLSCAASGRIFYTNVMGWYRQAPGKERELVAAISTGGGRTYYADSVKGRFTISRDNAKNTVYLQMNSLKPEDTAVYYCAASGRYAIVWGDQYYGYYYWGQGTQVTVSS,high polyreactivity
13,QVQLVESGGGLVQAGGSLRLSCAASGSIFVGNAMGWYRQAPGKERELVAAITRSGGRTYYADSVKGRFTISRDNAKNTVYLQMNSLKPEDTAVYYCNAVYWTVYSREYDYWGQGTQVTVSS,high polyreactivity
14,QVQLVESGGGLVQAGGSLRLSCAASGIIFSGYAKGWSRQAPGKERELVAAISYSGASTYYADSVKGRFTISRDNAKNSVYLLMNSLKPEDTAVYFCAADRRYGRYWNGWSYYYWGQGTQVTVSS,high polyreactivity
15,QVQLVESGGGLVQAGGSLRLSCAASGFIFRKNAMGWYRQAPGKERELVAANSQSGGSTYYADSVKGRFTISRDNAKNTVYLQMNSLKPEDTAVYYCAARYDLPNWVGGREYNYWGQGTQVTVSS,high polyreactivity
16,QVQLVESGGGLVQAGGSLRLSCAASGRTFYLYAMVCYRQAPGKERELVAAITNRGGSTYYADSVKGRFTISRDNAKNTVYLQMNSLKPEDTAVYYCAAQVSVYRGGYGYWGQGTQVTVSS,high polyreactivity
17,QVQLVESGGGLVQAGGSLRLSCAASGRIFSVYAMGWYRPAPGKERELVAAITRVGSTNYADSVKGRFTISRDNAKNTVYLQMNSLKPEDTAVYYCAASKYGSLSGYWGQGTQVTVSS,high polyreactivity
18,QVQLVESGGGLVQAGGSLRLSCAASGSIFPRYAMGWYRQAPGKERELVAGITSGGITYYADSVKGRFTISRDNAKNTVYLQLNSLKPEDTAVYYCAAVYYLVPGNYWGQGTQVTVSS,high polyreactivity
19,QVQLVESGGGLVQAGGSLRLSCAASGRTLWSYAMGWYRQAPGKEREIVAAISRRGGITYYADSVKGRFTISRDYAKNTVFLQRISLKPVDTAVFYSAKGAQSYYGGQVKYDYWGQGTQVTVSS,high polyreactivity
20,QVQLVESGGGLVQAGGSLRLSCAASGRTFKKNAMGWYRQAPGKERELVAAITGSGGSTYYADSVKGRFTISRDNAKKTVYLQMNSLKPEDTAVYYCAAYAYGVWHSQDCGNYWGQGTQVTVSS,low polyreactivity
21,QVQLVESGGGLVQAGGSLRLSCAASGSTFEYYGMGWYRQAPGKERELVATITSGGSTNYADSVKGRFTISRDNAKNTVYLQMNSLKPEDTAVYYCAVDISNSLGGGFGYDYWGQGTQVTVSS,low polyreactivity
